Test results: the supplement of paper PMC9112550, “Optimization of the antimicrobial peptide Bac7 by deep mutational scanning” (BMC Biology, 2022)

Tested on: Escherichia coli TOP10
Assay: shrunken log2 fold change of peptide-encoding DNA abundance (4.5 h post-induction vs induction); higher = less antimicrobial activity (less host growth inhibition)
Details: time post-induction: 4.5 h; library: site-saturation at positions 5, 18, 19, 20
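Also: peptides expressed intracellularly from a pBAD plasmid library in pooled LB shake-flask culture, induced with 0.3% L-arabinose, DNA abundance read by NGS, three biological replicates, DESeq2 with apeglm shrinkage.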

Sequence | shrunken log2 fold change
RRIRKRPPRLPRPRPRPQHGPRP | 0.205
RRIRKRPPRLPRPRPRPQHLPRP | 0.0344
RRIRKRPPRLPRPRPRPQKLPRP | 0.015
RRIRKRPPRLPRPRPRPQMPPRP | 0.0482
RRIRKRPPRLPRPRPRPQQCPRP | -0.371
RRIRKRPPRLPRPRPRPQQIPRP | -0.248
RRIRKRPPRLPRPRPRPQQQPRP | -0.0131
RRIRKRPPRLPRPRPRPQQYPRP | 0.183
RRIRKRPPRLPRPRPRPQRIPRP | 0.0286
RRIRKRPPRLPRPRPRPQSGPRP | 0.149
RRIRKRPPRLPRPRPRPQSLPRP | -0.017
RRIRKRPPRLPRPRPRPQTMPRP | 0.0588
RRIRKRPPRLPRPRPRPQVIPRP | 0.108
RRIRKRPPRLPRPRPRPQVMPRP | -0.162
RRIRKRPPRLPRPRPRPRAFPRP | 0.326
RRIRKRPPRLPRPRPRPRCDPRP | 0.288
RRIRKRPPRLPRPRPRPREAPRP | 1.44
RRIRKRPPRLPRPRPRPREMPRP | -0.0629
RRIRKRPPRLPRPRPRPRGQPRP | 0.648
RRIRKRPPRLPRPRPRPRGRPRP | 1.04
RRIRKRPPRLPRPRPRPRIHPRP | -0.0869
RRIRKRPPRLPRPRPRPRKEPRP | 0.015
RRIRKRPPRLPRPRPRPRKMPRP | 0.588
RRIRKRPPRLPRPRPRPRKYPRP | -0.211
RRIRKRPPRLPRPRPRPRLLPRP | 0.517

Sequence | shrunken log2 fold change
RRIRKRPPRLPRPRPRPRMPPRP | 0.363
RRIRKRPPRLPRPRPRPRMRPRP | 1.06
RRIRKRPPRLPRPRPRPRMSPRP | -0.216
RRIRKRPPRLPRPRPRPRNSPRP | -0.0385
RRIRKRPPRLPRPRPRPRPTPRP | 1.04
RRIRKRPPRLPRPRPRPRQKPRP | -0.0264
RRIRKRPPRLPRPRPRPRRNPRP | 0.316
RRIRKRPPRLPRPRPRPRRTPRP | 0.443
RRIRKRPPRLPRPRPRPRRYPRP | 0.47
RRIRKRPPRLPRPRPRPRSNPRP | 0.515
RRIRKRPPRLPRPRPRPRVDPRP | 0.0968
RRIRKRPPRLPRPRPRPRVEPRP | 0.144
RRIRKRPPRLPRPRPRPRWNPRP | 0.323
RRIRKRPPRLPRPRPRPRYEPRP | 0.362
RRIRKRPPRLPRPRPRPSAFPRP | 0.619
RRIRKRPPRLPRPRPRPSASPRP | 0.288
RRIRKRPPRLPRPRPRPSAWPRP | 0.534
RRIRKRPPRLPRPRPRPSDFPRP | -0.00266
RRIRKRPPRLPRPRPRPSDGPRP | 0.178
RRIRKRPPRLPRPRPRPSDVPRP | -0.157
RRIRKRPPRLPRPRPRPSEFPRP | 0.154
RRIRKRPPRLPRPRPRPSEPPRP | 0.249
RRIRKRPPRLPRPRPRPSFCPRP | -0.0321
RRIRKRPPRLPRPRPRPSFSPRP | -0.0191
RRIRKRPPRLPRPRPRPSGAPRP | 0.539

Sequence | shrunken log2 fold change
RRIRKRPPRLPRPRPRPSGEPRP | 0.0144
RRIRKRPPRLPRPRPRPSHMPRP | -0.0291
RRIRKRPPRLPRPRPRPSIEPRP | 0.0829
RRIRKRPPRLPRPRPRPSKIPRP | 0.154
RRIRKRPPRLPRPRPRPSKYPRP | -0.00772
RRIRKRPPRLPRPRPRPSNEPRP | -0.183
RRIRKRPPRLPRPRPRPSNVPRP | -0.343
RRIRKRPPRLPRPRPRPSRYPRP | 0.086
RRIRKRPPRLPRPRPRPSSYPRP | 0.0295
RRIRKRPPRLPRPRPRPSTTPRP | 0.162
RRIRKRPPRLPRPRPRPSTWPRP | -0.18
RRIRKRPPRLPRPRPRPSVSPRP | 0.172
RRIRKRPPRLPRPRPRPSWTPRP | -0.0691
RRIRKRPPRLPRPRPRPSWWPRP | 0.138
RRIRKRPPRLPRPRPRPSYNPRP | -0.397
RRIRKRPPRLPRPRPRPTCIPRP | -0.176
RRIRKRPPRLPRPRPRPTDTPRP | 0.261
RRIRKRPPRLPRPRPRPTFCPRP | 0.193
RRIRKRPPRLPRPRPRPTFVPRP | 0.362
RRIRKRPPRLPRPRPRPTGFPRP | 0.0653
RRIRKRPPRLPRPRPRPTHCPRP | 0.251
RRIRKRPPRLPRPRPRPTIHPRP | -0.087
RRIRKRPPRLPRPRPRPTIWPRP | 0.319
RRIRKRPPRLPRPRPRPTIYPRP | -0.0381
RRIRKRPPRLPRPRPRPTKEPRP | 1.6
